Results on 25 substances are retold here after article PMC7774954, “Interactomic affinity profiling by holdup assay: Acetylation and distal residues impact the PDZome-binding specificity of PTEN phosphatase” (PLoS ONE, 2020).

Experiment [1] deals with fRSK1, fluorescein-labelled RSK1 PBM peptide. Briefly: fluorescence polarisation; direct: N-terminally fluorescein-labelled PBM peptide (tracer) with increasing amounts of MBP-PDZ; 384-well plates; triplicate; direct binding model (ProFit). On the technique in general: In fluorescence polarisation assays a small probe gives low polarisation when free and higher when bound to something large.

The target of experiment [2] is PTEN_Ac (human) (UniProt P60484). Briefly: holdup assay; biotinylated PBM peptide saturating streptavidin resin (biotin resin as reference); tag-PDZ at 4 uM in crude E. coli lysate, 15 min, filtration, free tag-PDZ by capillary electrophoresis; singlicate; BI cut-off 0.20; BI converted into KD with the peptide concentration back-calculated from FP.
The target in experiment [3] is PTEN_KR (human) (UniProt P60484). Described as above.
Experiment [4] deals with PTEN_11 (human) (UniProt P60484). Described as above.
In experiment [5] the target is f16E6, fluorescein-labelled HPV16 E6 PBM peptide (HPV16). In words: fluorescence polarisation; direct: N-terminally fluorescein-labelled PBM peptide (tracer) with increasing amounts of MBP-PDZ; 384-well plates; triplicate; direct binding model (ProFit).
Experiment [6] deals with SNX27-1 (human). Briefly: fluorescence polarisation; competitive: 50 nM fluorescent tracer peptide pre-formed with the PDZ domain (>60-80% complex), unlabeled peptide added at 8 concentrations; 20 mM HEPES pH 7.5, 150 mM NaCl, 0.5 mM TCEP, 0.01% Tween 20; triplicate; apparent.
Experiment [7] has as its target MAST1-1, PDZ domain of MAST1 (human) (UniProt Q9Y2H9). In words: fluorescence polarisation; competitive: pre-formed complex of PDZ domain (>60-80% complex) and 50 nM fluorescent tracer peptide, increasing amount of unlabeled PTEN peptide (8 concentrations); 20 mM HEPES pH 7.5, 150 mM NaCl, 0.5 mM TCEP, 0.01% Tween 20; triplicate; competitive binding model (ProFit); apparent.

Experiment [8] concerns the target ARHGEF12-1, PDZ domain of ARHGEF12 (human) (UniProt Q9NZN5). The experiment is described as above.
Experiment [9] concerns the target SNX27-1, PDZ domain of SNX27 (human) (UniProt Q96L92). The description is as above.
For experiment [10], the target named is SNTA1-1, PDZ domain of SNTA1 (human) (UniProt Q13424). The experiment is described as above.
Sequence of SNTA1-1, PDZ domain of SNTA1 (human) (Q13424 whole entry, the tested form may be a part): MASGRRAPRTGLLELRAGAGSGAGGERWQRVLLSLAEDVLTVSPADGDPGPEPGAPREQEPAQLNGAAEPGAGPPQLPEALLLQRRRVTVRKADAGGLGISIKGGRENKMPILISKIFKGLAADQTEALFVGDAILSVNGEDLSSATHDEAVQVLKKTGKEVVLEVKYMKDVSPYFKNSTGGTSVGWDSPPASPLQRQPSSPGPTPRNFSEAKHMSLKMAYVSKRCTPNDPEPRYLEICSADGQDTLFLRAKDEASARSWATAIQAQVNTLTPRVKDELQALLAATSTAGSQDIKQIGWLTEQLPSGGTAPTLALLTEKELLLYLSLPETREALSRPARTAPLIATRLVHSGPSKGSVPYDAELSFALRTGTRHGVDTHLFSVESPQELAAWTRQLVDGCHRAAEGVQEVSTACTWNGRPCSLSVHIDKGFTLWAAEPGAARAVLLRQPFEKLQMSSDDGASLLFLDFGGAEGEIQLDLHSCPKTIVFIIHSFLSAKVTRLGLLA
Experiment [11] deals with GOPC-1, PDZ domain of GOPC (human) (UniProt Q9HD26). The experiment is described as above.
Experiment [12] concerns the target SNTB1-1, PDZ domain of SNTB1 (human) (UniProt Q13884). The experiment is described as above.
The target in experiment [13] is MAST2-1 (human). Briefly: fluorescence polarisation; competitive: 50 nM fluorescent tracer peptide pre-formed with the PDZ domain (>60-80% complex), unlabeled peptide added at 8 concentrations; 20 mM HEPES pH 7.5, 150 mM NaCl, 0.5 mM TCEP, 0.01% Tween 20; triplicate; apparent.
The target in experiment [14] is MAST1-1 (human). The description is as above.
Experiment [15] has as its target GRID2IP-2, second PDZ domain of GRID2IP (human) (UniProt A4D2P6). Briefly: fluorescence polarisation; competitive: pre-formed complex of PDZ domain (>60-80% complex) and 50 nM fluorescent tracer peptide, increasing amount of unlabeled PTEN peptide (8 concentrations); 20 mM HEPES pH 7.5, 150 mM NaCl, 0.5 mM TCEP, 0.01% Tween 20; triplicate; competitive binding model (ProFit); apparent.

Experiment [16] has as its target HTRA1-1, PDZ domain of HTRA1 (human) (UniProt Q92743). The experiment is described as above.
Experiment [17] deals with MAST2-1, PDZ domain of MAST2 (human) (UniProt Q6P0Q8). The description is as above.
Sequence of MAST2-1, PDZ domain of MAST2 (human) (Q6P0Q8 whole entry, the tested form may be a part): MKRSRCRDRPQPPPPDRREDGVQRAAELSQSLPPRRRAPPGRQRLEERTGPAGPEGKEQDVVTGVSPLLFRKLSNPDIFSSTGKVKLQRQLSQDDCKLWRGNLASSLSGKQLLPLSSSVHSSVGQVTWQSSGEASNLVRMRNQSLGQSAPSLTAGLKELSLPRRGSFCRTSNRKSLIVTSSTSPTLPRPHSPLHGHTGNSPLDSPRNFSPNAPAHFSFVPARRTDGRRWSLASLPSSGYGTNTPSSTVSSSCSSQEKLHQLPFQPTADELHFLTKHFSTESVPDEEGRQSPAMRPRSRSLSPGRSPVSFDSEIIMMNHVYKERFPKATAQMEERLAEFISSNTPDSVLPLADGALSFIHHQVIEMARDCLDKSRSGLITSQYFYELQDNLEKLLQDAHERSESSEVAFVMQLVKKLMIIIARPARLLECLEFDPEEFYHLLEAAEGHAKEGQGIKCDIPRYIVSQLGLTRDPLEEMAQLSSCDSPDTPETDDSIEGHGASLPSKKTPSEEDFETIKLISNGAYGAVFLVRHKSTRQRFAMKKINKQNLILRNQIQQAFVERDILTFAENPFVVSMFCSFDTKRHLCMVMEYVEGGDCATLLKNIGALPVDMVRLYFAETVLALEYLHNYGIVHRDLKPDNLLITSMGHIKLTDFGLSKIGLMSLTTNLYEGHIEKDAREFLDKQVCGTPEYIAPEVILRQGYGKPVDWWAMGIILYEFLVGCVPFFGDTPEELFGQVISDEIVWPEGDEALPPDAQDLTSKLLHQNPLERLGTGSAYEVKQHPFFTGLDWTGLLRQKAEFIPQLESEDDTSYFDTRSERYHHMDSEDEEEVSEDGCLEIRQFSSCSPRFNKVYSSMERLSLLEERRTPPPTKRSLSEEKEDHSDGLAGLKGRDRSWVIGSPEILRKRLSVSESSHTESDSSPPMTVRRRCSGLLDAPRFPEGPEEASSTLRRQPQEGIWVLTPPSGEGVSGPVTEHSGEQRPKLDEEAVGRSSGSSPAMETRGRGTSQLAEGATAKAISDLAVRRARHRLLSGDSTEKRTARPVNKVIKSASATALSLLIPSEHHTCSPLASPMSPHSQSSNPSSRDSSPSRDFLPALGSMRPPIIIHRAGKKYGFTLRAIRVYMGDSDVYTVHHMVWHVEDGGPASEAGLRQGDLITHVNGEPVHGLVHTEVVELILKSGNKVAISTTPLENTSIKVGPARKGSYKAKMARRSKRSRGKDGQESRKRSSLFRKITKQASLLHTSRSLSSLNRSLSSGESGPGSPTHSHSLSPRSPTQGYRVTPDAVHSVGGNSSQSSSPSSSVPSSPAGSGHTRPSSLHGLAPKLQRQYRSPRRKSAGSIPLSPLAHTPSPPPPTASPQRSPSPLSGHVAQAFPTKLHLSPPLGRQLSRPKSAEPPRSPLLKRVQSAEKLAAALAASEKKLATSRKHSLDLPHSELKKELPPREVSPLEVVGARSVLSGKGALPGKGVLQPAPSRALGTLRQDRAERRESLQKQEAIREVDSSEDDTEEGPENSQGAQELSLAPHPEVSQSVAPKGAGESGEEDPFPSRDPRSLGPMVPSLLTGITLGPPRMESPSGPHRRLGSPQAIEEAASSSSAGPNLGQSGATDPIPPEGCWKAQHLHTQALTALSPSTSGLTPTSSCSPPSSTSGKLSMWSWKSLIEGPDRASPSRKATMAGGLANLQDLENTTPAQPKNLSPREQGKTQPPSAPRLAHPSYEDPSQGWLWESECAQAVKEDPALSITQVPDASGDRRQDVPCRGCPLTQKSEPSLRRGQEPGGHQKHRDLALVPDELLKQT
The target of experiment [18] is SNTG2-1, PDZ domain of SNTG2 (human) (UniProt Q9NY99). The description is as above.
The target of experiment [19] is fpRSK1, fluorescein-labelled phosphorylated RSK1 PBM peptide. Briefly: fluorescence polarisation; direct: N-terminally fluorescein-labelled PBM peptide (tracer) with increasing amounts of MBP-PDZ; 384-well plates; triplicate; direct binding model (ProFit).
Experiment [20] deals with PTEN_13 (human) (UniProt P60484). Briefly: holdup assay; biotinylated PBM peptide saturating streptavidin resin (biotin resin as reference); tag-PDZ at 4 uM in crude E. coli lysate, 15 min, filtration, free tag-PDZ by capillary electrophoresis; singlicate; BI cut-off 0.20; BI converted into KD with the peptide concentration back-calculated from FP.

Sequence of MAST1-1, PDZ domain of MAST1 (human) (Q9Y2H9 whole entry, the tested form may be a part): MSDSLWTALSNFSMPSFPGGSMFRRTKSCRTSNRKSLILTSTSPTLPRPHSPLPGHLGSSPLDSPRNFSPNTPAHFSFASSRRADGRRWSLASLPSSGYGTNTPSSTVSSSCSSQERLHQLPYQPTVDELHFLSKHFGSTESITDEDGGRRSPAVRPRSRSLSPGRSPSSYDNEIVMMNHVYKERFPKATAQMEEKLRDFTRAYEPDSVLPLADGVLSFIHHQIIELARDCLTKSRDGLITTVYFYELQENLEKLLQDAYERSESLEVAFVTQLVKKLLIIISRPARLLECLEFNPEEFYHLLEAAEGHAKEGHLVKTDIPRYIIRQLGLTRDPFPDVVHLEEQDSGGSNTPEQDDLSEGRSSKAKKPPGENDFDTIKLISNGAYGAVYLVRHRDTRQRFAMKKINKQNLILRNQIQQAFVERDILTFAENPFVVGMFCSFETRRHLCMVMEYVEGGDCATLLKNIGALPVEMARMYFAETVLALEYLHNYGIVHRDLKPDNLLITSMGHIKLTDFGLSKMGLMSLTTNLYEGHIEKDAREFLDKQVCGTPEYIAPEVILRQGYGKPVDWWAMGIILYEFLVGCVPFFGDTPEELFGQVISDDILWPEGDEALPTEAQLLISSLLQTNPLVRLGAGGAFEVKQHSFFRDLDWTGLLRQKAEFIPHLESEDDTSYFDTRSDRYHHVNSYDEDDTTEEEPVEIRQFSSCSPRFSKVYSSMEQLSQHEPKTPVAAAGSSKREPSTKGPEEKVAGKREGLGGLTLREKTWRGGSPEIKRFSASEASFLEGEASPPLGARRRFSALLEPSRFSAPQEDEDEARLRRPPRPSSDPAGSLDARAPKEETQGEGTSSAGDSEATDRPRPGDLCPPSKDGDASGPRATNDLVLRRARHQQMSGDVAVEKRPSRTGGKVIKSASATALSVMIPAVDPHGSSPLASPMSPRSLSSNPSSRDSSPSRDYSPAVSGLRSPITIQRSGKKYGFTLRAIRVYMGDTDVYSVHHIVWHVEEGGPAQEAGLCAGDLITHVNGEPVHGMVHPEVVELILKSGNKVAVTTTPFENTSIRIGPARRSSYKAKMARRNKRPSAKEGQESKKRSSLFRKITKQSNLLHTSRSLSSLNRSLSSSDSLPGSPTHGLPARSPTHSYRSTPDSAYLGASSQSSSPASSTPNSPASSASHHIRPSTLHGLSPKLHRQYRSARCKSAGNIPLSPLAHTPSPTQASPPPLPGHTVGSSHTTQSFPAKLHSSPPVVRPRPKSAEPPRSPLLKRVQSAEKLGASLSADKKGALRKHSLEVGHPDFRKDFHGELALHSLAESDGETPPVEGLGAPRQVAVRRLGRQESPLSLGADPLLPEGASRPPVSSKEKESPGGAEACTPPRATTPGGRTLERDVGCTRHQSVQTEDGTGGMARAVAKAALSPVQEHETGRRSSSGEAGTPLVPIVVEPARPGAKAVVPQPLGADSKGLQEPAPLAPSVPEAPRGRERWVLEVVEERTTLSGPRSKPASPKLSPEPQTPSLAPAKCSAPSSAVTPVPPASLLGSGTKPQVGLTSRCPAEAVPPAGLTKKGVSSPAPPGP
Sequence of HTRA1-1, PDZ domain of HTRA1 (human) (Q92743 23-480): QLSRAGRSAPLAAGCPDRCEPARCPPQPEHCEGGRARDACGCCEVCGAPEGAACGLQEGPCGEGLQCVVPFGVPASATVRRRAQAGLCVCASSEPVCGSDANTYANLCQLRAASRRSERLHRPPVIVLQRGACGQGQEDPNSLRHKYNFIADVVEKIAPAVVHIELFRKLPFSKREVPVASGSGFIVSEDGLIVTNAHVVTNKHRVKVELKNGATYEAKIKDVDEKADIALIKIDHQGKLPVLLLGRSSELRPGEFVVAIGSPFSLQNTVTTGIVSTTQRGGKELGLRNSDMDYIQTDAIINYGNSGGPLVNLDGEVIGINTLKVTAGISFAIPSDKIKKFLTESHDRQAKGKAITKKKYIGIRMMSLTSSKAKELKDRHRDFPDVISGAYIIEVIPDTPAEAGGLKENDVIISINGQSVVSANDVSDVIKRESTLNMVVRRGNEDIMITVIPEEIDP
Sequence of SNTB1-1, PDZ domain of SNTB1 (human) (Q13884 whole entry, the tested form may be a part): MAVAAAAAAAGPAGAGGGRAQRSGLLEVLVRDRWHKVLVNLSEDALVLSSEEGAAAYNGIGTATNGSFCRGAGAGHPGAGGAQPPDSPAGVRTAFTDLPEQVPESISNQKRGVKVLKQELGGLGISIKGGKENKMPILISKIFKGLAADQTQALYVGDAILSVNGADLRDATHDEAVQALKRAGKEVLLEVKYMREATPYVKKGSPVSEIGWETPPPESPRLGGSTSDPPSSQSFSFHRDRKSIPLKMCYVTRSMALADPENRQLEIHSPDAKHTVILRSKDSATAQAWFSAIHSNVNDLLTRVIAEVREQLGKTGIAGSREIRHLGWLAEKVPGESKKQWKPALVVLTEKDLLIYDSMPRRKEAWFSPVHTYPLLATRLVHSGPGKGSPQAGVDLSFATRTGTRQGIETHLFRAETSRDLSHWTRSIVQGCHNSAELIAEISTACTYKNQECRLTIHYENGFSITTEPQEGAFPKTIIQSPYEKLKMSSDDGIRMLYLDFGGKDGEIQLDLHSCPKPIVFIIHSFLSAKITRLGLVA
Sequence of GRID2IP-2, second PDZ domain of GRID2IP (human) (A4D2P6 279-356): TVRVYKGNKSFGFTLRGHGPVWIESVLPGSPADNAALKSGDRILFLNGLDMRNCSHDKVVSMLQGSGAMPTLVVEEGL

“ARHGEF12-1, PDZ domain of ARHGEF12 (from UniProt Q9NZN5 1-1544) (domain or fragment)” showed a Kd in experiment [1] of 3.96 µM.
In the case of “DLG1-2 (from UniProt Q12959 319-405) (domain or fragment)”, in experiment [2], the Kd is 36 µM.
The substance “HTRA1-1, PDZ domain of HTRA1 (from UniProt Q92743 23-480) (domain or fragment)” registered a Kd in [1] of 64.8 µM.
Turning to “MAGI3-2 (from UniProt Q5TCQ9 410-492) (domain or fragment)”, the Kd in [2] is 39 µM.
Regarding MAST1-1 (domain or fragment), the results for the Kd in [3], in experiment [2] and in experiment [4] were 32 µM, 26 µM and 39 µM, respectively.
“MAST1-1, PDZ domain of MAST1 (from UniProt Q9Y2H9 1-1570) (domain or fragment)”: in [5], the Kd was determined as 7.52 µM.
For the substance MAST2-1 (domain or fragment), the Kd in [3] is 7 µM; in experiment [2], 4 µM; in [4], 13 µM.
In [1], “MAST2-1, PDZ domain of MAST2 (from UniProt Q6P0Q8 1-1798) (domain or fragment)” registered a Kd of 6.87 µM.
Turning to MAST3-1 (domain or fragment), the Kd is 82 µM in experiment [3], 85 µM in experiment [2] and 241 µM in experiment [4].
“NHERF2-2 (from UniProt Q15599 150-230) (domain or fragment)”: in experiment [4], the Kd was 35 µM.
On the same count and under the same terms, the same measure for “PARD3-3 (from UniProt Q8TEW0 590-677) (domain or fragment)”: 160 µM.
In the case of “PTEN_11 (from UniProt P60484 393-403) (peptide)”, the Kd in experiment [6] was 14 µM.
“PTEN_11, 11-mer wild-type PDZ-binding motif peptide of PTEN”: the Kd stood at 10.9 µM in experiment [7]; 113 µM in experiment [8]; 13.8 µM in experiment [9]; 194 µM in experiment [10]; 131 µM in [11]; 67 µM in [12].
Consider “PTEN_13 (from UniProt P60484 391-403) (peptide)”, for which the Kd in [13] is 1 µM; in experiment [14], 8 µM.
With “PTEN_13, 13-mer wild-type PDZ-binding motif peptide of PTEN”, the Kd turned out to be 7.62 µM in [7]; 59.1 µM in experiment [15]; 100 µM in [8]; 25.3 µM in [16]; 7.95 µM in experiment [9]; 123 µM in [10]. Further, the figures for the Kd in [11], in experiment [12] and in experiment [17] were 82.1 µM, 44.5 µM and 1.28 µM, respectively.
“PTEN_Ac, 11-mer PTEN PDZ-binding motif peptide acetylated at K402”: the Kd in [7] is 7.4 µM; in experiment [18], 377 µM; in [8] it was 65.5 µM; in experiment [16], 10.2 µM; in experiment [9], 4.07 µM; in experiment [10], 45.3 µM. Besides, the Kd came to 70.2 µM in experiment [11], 14.5 µM in experiment [12] and 2.56 µM in experiment [17].
Turning to “PTEN_KR (from UniProt P60484 393-403) (peptide)”, the Kd in experiment [6] was determined as 8 µM.
Consider “PTEN_KR, 11-mer PTEN PDZ-binding motif peptide with K402R”, for which the Kd in experiment [7] came out at 9.11 µM; in experiment [18], 141 µM; in [8], 114 µM; in [16], 36.2 µM; in experiment [9], 8.32 µM; in experiment [10] it was 65.1 µM. Moreover, the figures for the Kd in experiment [11], in experiment [12] and in experiment [17] were 47.4 µM, 24.4 µM and 2.39 µM, respectively.
Regarding “PTPN13-2 (from UniProt Q12923 1368-1452) (domain or fragment)”, the Kd in experiment [4] was 148 µM.
Turning to “PTPN13-4 (from UniProt Q12923 1788-1868) (domain or fragment)”, the Kd in experiment [2] is 10 µM.
Take “SNTA1-1, PDZ domain of SNTA1 (from UniProt Q13424 1-505) (domain or fragment)”: the Kd in experiment [19] stood at 20.4 µM.
For “SNTB1-1, PDZ domain of SNTB1 (from UniProt Q13884 1-538) (domain or fragment)”, the Kd in experiment [19] came out at 3.98 µM.
In the case of SNTB2-1 (domain or fragment), the Kd in experiment [20] is 64 µM.
In [19], “SNTG2-1, PDZ domain of SNTG2 (from UniProt Q9NY99 1-539) (domain or fragment)” had a Kd of 21.9 µM.
Take SNX27-1 (domain or fragment): the Kd was 4 µM in experiment [2] and 6 µM in experiment [20].
